In this test the target is human TNFSF9 (R&D Systems; #2295-4L-025/CF) (human) (UniProt P41273). Briefly: MSD ELISA: TNFSF9 + 1 ug/mL antibody, binding to coated TNFRSF9. Background: ELISA stands for enzyme-linked immunosorbent assay.
Sequence of human TNFSF9 (R&D Systems; #2295-4L-025/CF) (human) (P41273 71-254 limits assumed): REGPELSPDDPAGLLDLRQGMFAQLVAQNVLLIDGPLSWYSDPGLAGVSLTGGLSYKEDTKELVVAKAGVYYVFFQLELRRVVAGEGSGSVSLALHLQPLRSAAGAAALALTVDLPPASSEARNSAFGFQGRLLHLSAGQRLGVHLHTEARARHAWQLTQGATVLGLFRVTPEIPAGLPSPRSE

Turning to msIgG2a (antibody), the % inhibition of ligand receptor interaction was -4%.

As for msIgG2b (antibody), the % inhibition of ligand receptor interaction is -5%.

On to huIgG1 (antibody), for which the % inhibition of ligand receptor interaction came out at 0%.

In the case of mouse IgG1 isotype control antibody, the % inhibition of ligand receptor interaction was 1%.
